Test [1] addresses human alpha-tubulin, cell-free expressed with C-terminal HSV epitope tag and polyhistidine tag (human) (UniProt P50607). As to the kind of experiment: protein adsorbed to polystyrene 96-well plate, anti-HSV-AP chemiluminescence; against the minus DNA negative control.
Test [2] has as its target human p53 oncoprotein (cellular tumor antigen p53), cell-free expressed from pETBlue-2 with C-terminal HSV epitope tag and polyhistidine tag (human) (UniProt P04637). The test is described as above.
In test [3] the target is human glutathione-s-transferase A2 (GST A2), cell-free expressed from pETBlue-2 with C-terminal HSV epitope tag and polyhistidine tag (human) (UniProt P09210). The test is described as follows: BODIPY-FL labelled GST photo-released from magnetic beads and captured on anti-HSV antibody coated substrate; against the minus DNA blank.
For test [4] the target is unchanged. As to the kind of experiment: cell-free expressed HSV-tagged GST captured on anti-HSV PC-antibody NeutrAvidin agarose beads; fractions quantified by fluorescence SDS-PAGE.
For test [5], the target named is human dihydrofolate reductase (DHFR), cell-free expressed with C-terminal HSV and polyhistidine epitope tags (human) (UniProt P00374). The test is described as follows: antibody-protein complex photo-released from beads, held on nickel chelate plate by the protein's polyhistidine tag; bound anti-HSV antibody read with anti-[mouse IgG] HRP; against the minus DNA negative control.

The target of test [6] is human glutathione-s-transferase A2 (GST A2), cell-free expressed from pETBlue-2 with C-terminal HSV epitope tag and polyhistidine tag (human) (UniProt P09210). Described as above.
For test [7], the target named is wild-type human APC segment 3 of Exon 15 (codons 1,099 to 1,696) with N-terminal VSV-G and HSV epito (human) (UniProt P25054).
Sequence of wild-type human APC segment 3 of Exon 15 (codons 1,099 to 1,696) with N-terminal VSV-G and HSV epito (human) (P25054 other isoform, or with tags, fused parts or gaps limits assumed): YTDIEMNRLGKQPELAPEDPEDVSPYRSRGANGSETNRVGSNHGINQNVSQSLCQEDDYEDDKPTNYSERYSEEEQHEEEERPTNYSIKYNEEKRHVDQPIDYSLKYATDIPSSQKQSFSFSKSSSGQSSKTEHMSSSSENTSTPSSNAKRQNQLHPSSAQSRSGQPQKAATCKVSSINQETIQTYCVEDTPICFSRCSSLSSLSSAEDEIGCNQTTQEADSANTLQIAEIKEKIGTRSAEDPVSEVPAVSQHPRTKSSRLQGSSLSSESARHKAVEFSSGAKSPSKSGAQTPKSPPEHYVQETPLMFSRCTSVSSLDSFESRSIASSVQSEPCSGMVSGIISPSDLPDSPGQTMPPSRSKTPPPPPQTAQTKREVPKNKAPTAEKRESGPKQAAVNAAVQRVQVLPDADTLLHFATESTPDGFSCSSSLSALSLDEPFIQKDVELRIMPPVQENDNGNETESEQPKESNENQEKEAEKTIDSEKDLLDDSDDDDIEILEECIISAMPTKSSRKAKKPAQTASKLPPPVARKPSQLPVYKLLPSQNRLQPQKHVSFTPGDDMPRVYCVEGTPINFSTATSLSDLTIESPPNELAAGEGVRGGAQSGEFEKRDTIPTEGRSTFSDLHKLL

Sequence of human glutathione-s-transferase A2 (GST A2), cell-free expressed from pETBlue-2 with C-terminal HSV epitope tag and polyhistidine tag (human) (P09210 other isoform, or with tags, fused parts or gaps): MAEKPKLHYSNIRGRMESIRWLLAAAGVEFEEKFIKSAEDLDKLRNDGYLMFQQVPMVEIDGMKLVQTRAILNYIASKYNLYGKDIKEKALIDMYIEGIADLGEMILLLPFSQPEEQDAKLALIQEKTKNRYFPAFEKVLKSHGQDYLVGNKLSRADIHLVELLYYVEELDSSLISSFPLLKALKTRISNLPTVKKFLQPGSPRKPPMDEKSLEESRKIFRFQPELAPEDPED

Turning to “mouse monoclonal anti-HSV tag antibody (EMD Biosciences, Inc., San Diego, Calif.)”, the signal to noise ratio in test [1] was 140 :1; in test [2], 609 :1; in test [3], 9 :1; in test [5], 19 :1; in test [6] it was 108 :1. The substance also came in with a percent of total GST bound in test [4] of 75%. Besides, in test [4], the percent of total GST not bound worked out at 25%.
Take “anti-VSV antibody conjugated to the Cy3 fluorophore (clone P5D4; Sigma-Aldrich, St. Louis, Mo.)”: the signal to noise ratio in test [7] is 186 :1.

Source of the values: patent US20180017550A1.
